Results from patent US20220025012A1 (HANMI PHARM, published 2022).
Square brackets hold non-standard residues; d marks the D form. Ends that are not written are not given here. αMeE = C[C@](N)(CCC(=O)O)C(=O)O

target: human glucagon receptor (human, UniProt P47871 26-477); assay: cell-based or functional assay
Sequence (P47871 26-477): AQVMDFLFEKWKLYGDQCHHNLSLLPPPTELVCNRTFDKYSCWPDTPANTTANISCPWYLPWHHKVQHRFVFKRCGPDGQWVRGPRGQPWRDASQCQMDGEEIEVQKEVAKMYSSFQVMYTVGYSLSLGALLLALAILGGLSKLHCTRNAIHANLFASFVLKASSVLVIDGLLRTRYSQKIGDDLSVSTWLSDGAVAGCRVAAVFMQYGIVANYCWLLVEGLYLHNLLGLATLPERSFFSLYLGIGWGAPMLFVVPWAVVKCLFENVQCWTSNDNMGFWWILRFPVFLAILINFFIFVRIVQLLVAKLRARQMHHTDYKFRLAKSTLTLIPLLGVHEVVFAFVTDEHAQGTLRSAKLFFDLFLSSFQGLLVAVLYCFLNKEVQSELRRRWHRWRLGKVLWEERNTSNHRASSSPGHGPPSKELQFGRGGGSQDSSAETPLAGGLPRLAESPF

EC50 (nM), cAMP concentration in CHO cells expressing hGCGR [nM]	Binder
0.23	H[αMeE]QGTFTSDYSKYLDECRAKEFVQWLMNT (not fully specified) [glucagon derivative of SEQ ID NO: 13]
0.38	H[αMeE]QGTFTSDYSKYLDEKCAKEFVQWLMNT (not fully specified) [glucagon derivative of SEQ ID NO: 14]
1.38	H[αMeE]QGTFTSDYSKYLCEKRAKEFVQWLMNT (not fully specified) [glucagon derivative of SEQ ID NO: 12]

target: human GLP-1 receptor (human, UniProt P43220 24-463); assay: cell-based or functional assay

EC50 (nM), cAMP concentration in CHO cells expressing hGLP-IR [nM]	Binder
0.27	H[αMeE]QGTFTSDYSKYLDECRAKEFVQWLMNT (not fully specified) [glucagon derivative of SEQ ID NO: 13]
0.17	H[αMeE]QGTFTSDYSKYLDEKCAKEFVQWLMNT (not fully specified) [glucagon derivative of SEQ ID NO: 14]
0.96	H[αMeE]QGTFTSDYSKYLCEKRAKEFVQWLMNT (not fully specified) [glucagon derivative of SEQ ID NO: 12]
